Test results from patent US20240218057A1 (ROCKEFELLER UNIVERSITY, published 2024).

B1: C847 (antibody, V domains shown)
VH: QVQLVESGGGVVQPGGSLRLSCGASGFTFSSYAMHWVRQAPGEGLEWVAVILYDGAGKFYADSVKGRFTISRDNSKNTLYLQMNSLRAEDTAVYYCARDYGDYVTHFDYWGQGALVTVSS
VL: DIQMTQSPSSLSASVGDRVTITCRASQSISSYLNWYQQKPGKAPKLLIYTASSLQSGVPSRFSGSGSGTDFTLTITSLQPEDFATYYCQQSYNTPPWTFGQGTKVEIK
notes: IgG; V domains only
B2: C851 (antibody, V domains shown)
VH: QLQLQESGPGLVKTSETLSLTCTVSGGSISSGNSYWGWIRQPPGKGLEWIGDIYYSGSTFYNPSLKSRLTISVDTSKNQFSLKLTSVTAADTAVYYCARRGGRTPVRFNYGGDVWGQGTTVTVSS
VL: DIQMTQSPSSLSASVGDRVTITCQASQDISRYLNWFQHKPGKAPKLLIYDASNLEAGVPSRFTGSGSGTEFTFTISSLQPEDFAIYFCQQYDSLPLTFGGGTKVEI
notes: IgG; V domains only
B3: C863 (antibody, V domains shown)
VH: EVQLLESGGGLVRPGGSLRLSCAASGFIFGSYAMTWVRQAPGKGLEWVSTISGGGTSTDYADSVKGHFTISRDNGKNTLYLQMNSLRAEDTAVYYCVKESDYYMASVNGMDVWGHGTTVTVSS
VL: EIVLTQSPGTLSLSPGERATLSCRARQGVSSTYLAWYQQKPGQAPRLLIYGASSRATGIPDRFSGSGSGADFTLTISRLEPEDFAVYYCQQYGTSPYTFGQGTKLEIK
notes: IgG; V domains only
B4: C864 (antibody, V domains shown)
VH: QVQLVQSGPEVKKPGTSVKVSCKAFQLSFSVSAVQWVRQARGQRLEWIGWIVVGSGNTNYAQKFQERVTITRDMSTSTVYMEVRSLRSEDTAVYYCAAPQCNRTTCYDAFDMWGQGTMVTVSS
VL: EIVLTQSPGTLSLSPGERATLSCRASQSVNSNYLAWYQQKPGQAPRLLIFGPSNRATGIPDRFSGSGSGTDFTLTISRLESEDFAVYYCQQYGSSPWTFGQGTKVEIK
notes: IgG; V domains only
B5: C865 (antibody, V domains shown)
VH: EVQLLESGGGLVQPGGSLRLSCVASRFIFSRYALSWVRQAPGKGLEWVSGISGSGHSTHYADSVTGRFTISRDNSKNTVYLQMSSLRAEDTAVYYCAKGPRSNYDYFESWGQGTLVTVSS
VL: DIQLTQSPSSLSASVGDRVTITCRASQGISSALAWYQQRPGKAPRLLIYDASSLDSGVPSRFSGSGSGTDFTLTISSLQSEDFATYYCQQFINNPLTFGGGTKVEIK
notes: IgG; V domains only
B6: C866 (antibody, V domains shown)
VH: EVQLVESGGGLVQPGRSLRLSCVASGFEFEDYGMHWVRQVPGKGLEWVSGISWNSASVGYADSVRGRFTISRDNAKNSLYLQMNSLRAEDTALYYCGKQINEWSHFLDYWGQGTLVTVSS
VL: DIQLTQSPSSVSASVGDRVTITCRASQGISNWLAWYQKKPGKAPKLLIYATSSLQSGVPSRFSGSGSETDFTLTIRSLQPEDFATYYCQQANSYPLTFGQGTKLEIK
notes: IgG; V domains only
B7: C854 (antibody, V domains shown)
VH: EVQLVESGGGLIQPGGSLRLSCAASGITVSSNYMNWVRQAPGKGLEWVSVLYAGGSTFYADSVKGRFTISRDDSKNTLYLQMDSLRAEDTAVYYCARDLSSSGGFDYWGQGTLVTVSS
VL: EIVLTQSPGTLSLSPGERATLSCRASQSVSSSYLAWYQQKPGQAPRLLIYGASSRATGIPDRFSGRGSGTDFTLTISRLEPEDFAVYYCQQYGSLYTFGQGTKLEIK
notes: IgG; V domains only
B8: C850 (antibody, V domains shown)
VH: QVQLQESGPGLVKPSETLSLICSVSGVSVSSRNFFWSWIRQPPGKGLEWIGYMSYGGNTNYNPSLKSRVTISIDTSKNQFSLKLSSVTAADTAVYYCARETYYYDRSGYYSSDGFDYWGQGILVTVSS
VL: EIVLTQSPGTLSLSPGERATLSCRASQSITSSSLAWYQQKRGQPPRLLIYGASSRATGIPDRFSGSGSGTDLTLTISRLEPEDFAVYYCQQYGNSPYTFGQGTKLEIK
notes: IgG; V domains only

Biological target: T1, SARS-COV-2 RBD (SARS-COV-2, UniProt P0DTC2 319-539)
T1 construct: also called WT RBD
Assay: ELISA, RBD coated

Question: B1 was tested. Which EC50 did it give?
Answer: The EC50 was 3.06 ng/mL.

Question: For B2, which EC50 is on record?
Answer: The EC50 was 2.83 ng/mL.

Question: How did the EC50 turn out when B3 was run?
Answer: The EC50 was 3.31 ng/mL.

Question: With B4 as the binder, how does the EC50 read?
Answer: The EC50 was 1.89 ng/mL.

Question: How did the EC50 turn out when B5 was run?
Answer: The EC50 was 2.14 ng/mL.

Question: With B6 as the binder, how does the EC50 read?
Answer: The EC50 was 2 ng/mL.

Question: B7 was tested. Which EC50 did it give?
Answer: Its EC50 is 2.57 ng/mL.

Question: B8 was tested. Which EC50 did it give?
Answer: The EC50 was 3.7 ng/mL.
